Test results as given in patent US20230074134A1, “METHOD FOR PREPARING SOY LEGHEMOGLOBIN USING ESCHERICHIA COLI” (iNtRON Biotechnology, Inc., priority 2020, published 2023).

Tested on: iron-deficiency-anemia-induced animals
Assay type: in vivo, Sprague-Dawley rats (female)
Procedure: The composition containing soy leghemoglobin prepared according to the present invention was administered to iron-deficiency-anemia-induced animals, whereby the effectiveness of the composition containing soy leghemoglobin on alleviating anemia was evaluated. Specifically, after 2 weeks acclimation period, thirty 9-week old Sprague-Dawley rats (female) were divided into 3 groups of 10 rats per group, among which one group was fed with normal feed in an amount of 10% of body weight daily for one month (Group 1; control), and the remaining two groups were fed with iron-deficient feed in an amount of 10% of body weight daily for 6 weeks to induce iron-deficiency anemia (Group 2 and Group 3). After 6 weeks of feeding, it was confirmed that iron-deficiency anemia was induced in the individual rat belonging to Group 2 and Group 3. Then, one of the anemia-induced groups was orally administered once a day with saline alone (Group 2), and the other anemia-induced group was orally administered once a day with solution containing soy leghemoglobin (0.1 mg Fe/500 μl solution, Group 3). The administration continued for 5 weeks. During 5 weeks of administration to Group 2 and Group 3, Group 1 was continuously fed with normal feed, and Group 2 and Group 3 were fed with iron-deficient feed. […] After 5 weeks of administration, blood was collected, and whether anemia was alleviated was evaluated.

[1] = iron-deficient feed, oral once a day, 0.1 mg Fe/500 μl solution, 5 weeks, blood collected after 5 weeks

B1: soy leghemoglobin (protein)
chain: MGAFTEKQEALVSSSFEAFKANIPQYSVVFYTSILEKAPAAKDLFSFLSNGVDPSNPKLTGHAEKLFGLVRDSAGQLKANGTVVADAALGSIHAQKAITDPQFVVVKEALLKTIKEAVGDKWSDELSSAWEVAYDELAAAIKKAF
modifications: heme cofactor; Soy leghmoglobin
anemia-induced rats, 5 weeks oral administration
  Alleviation of iron-deficiency anemia (conclusion): effective at alleviating iron-deficiency anemia
iron-deficient feed, oral once a day, 0.1 mg Fe/500 μl solution, 5 weeks, anemia-induced female Sprague-Dawley rats
  Weight of rats on 5 weeks after administration: 369.3 ± 1.1 g
[1]
  Blood test Hematocrit: 31.8 ± 1.9%
  Blood test Hemoglobin content: 14.2 ± 0.4 g/dL
